{"source": "patent US12649778", "key": {"[1]": {"molecular_target": "Peptide 2004 (…) (Mycobacterium tuberculosis)"}, "[2]": {"molecular_target": "Peptide 1593 (…) (Mycobacterium tuberculosis)", "experiment": "ELISA, NNK clone supernatant on coated peptide"}, "[3]": {"molecular_target": "Peptide 1593 (…) (Mycobacterium tuberculosis)", "experiment": "ELISA, NNK clone supernatant on coated peptide (22 hits)"}}, "note": "Values joined by “and” are separate entries in the source; they are usually repeats but may differ in a detail not shown here. Identical values can stand only once."}
{"binder": "Antibody 74D3-1 (antibody, V domains shown) VH: QSVEESGGRLVTPGTPLTLTCTVSGIDLSNNAMGWVRQAPGEGLEWIGTIYASGNTYYASWAKGRFAISKTSTTVDLKMTSLTAADTATYFCARLFNIWGPGTLVTVSS VL: ADIVLTQSPASVSSAVGGTVTINCQASQSVYDNKNLSWFQQKPGQPPKQLIYAASTLASGVPSRFKGSGSGTQFTLTISGMQCDDAATYYCGGRDSGNIYDFGGGTEVVVK", "values": [{"measurement": "rank by relative ELISA signal across the dilution series (1 = highest)", "setting": "[1]", "result": 9}]}
{"binder": "65D3 chimeric Fab, NNK library L18 mutant L to N (VL L55N) (Fab, V domains shown) VH: QSLEESGGRLVTPGGSLTLTCTVSGFSLSTHDISWVRQAPGKGLEWIGVIARRGSTYYASWAKGRFTISKTSTTVDLKITSPTIEDTATYFCAREEFDFWGQGTLVTVSS VL: AVLTQTASPVSAAVGGTVTISCQSSQSVYNNKELSWFQQKPGQPPKLLISYASTNASGVPSRFKGSGSGTQFTLTISDLECDDAATYYCLGGYASTIDMWAFGGGTEVVVK", "values": [{"measurement": "OD450 nm", "setting": "[2]", "result": 0.937, "unit": "OD450"}, {"measurement": "ratio (OD450 to WT OD450)", "setting": "[2]", "result": "1.26 fold of WT"}, {"measurement": "OD450 nm", "setting": "[3]", "result": 0.937, "unit": "OD450"}, {"measurement": "ratio (OD450 to WT OD450)", "setting": "[3]", "result": "1.26 fold of WT"}]}
{"binder": "65D3 chimeric Fab, NNK library L20 mutant S to H (VL S57H) (Fab, V domains shown) VH: QSLEESGGRLVTPGGSLTLTCTVSGFSLSTHDISWVRQAPGKGLEWIGVIARRGSTYYASWAKGRFTISKTSTTVDLKITSPTIEDTATYFCAREEFDFWGQGTLVTVSS VL: AVLTQTASPVSAAVGGTVTISCQSSQSVYNNKELSWFQQKPGQPPKLLISYASTLAHGVPSRFKGSGSGTQFTLTISDLECDDAATYYCLGGYASTIDMWAFGGGTEVVVK", "values": [{"measurement": "OD450 nm", "setting": "[2]", "result": 0.596, "unit": "OD450"}, {"measurement": "ratio (OD450 to WT OD450)", "setting": "[2]", "result": "1.25 fold of WT"}, {"measurement": "OD450 nm", "setting": "[3]", "result": 0.596, "unit": "OD450"}, {"measurement": "ratio (OD450 to WT OD450)", "setting": "[3]", "result": "1.25 fold of WT"}]}
{"binder": "65D3 chimeric Fab, NNK library H25 mutant K to R (VH K63R) (Fab, V domains shown) VH: QSLEESGGRLVTPGGSLTLTCTVSGFSLSTHDISWVRQAPGKGLEWIGVIARRGSTYYASWARGRFTISKTSTTVDLKITSPTIEDTATYFCAREEFDFWGQGTLVTVSS VL: AVLTQTASPVSAAVGGTVTISCQSSQSVYNNKELSWFQQKPGQPPKLLISYASTLASGVPSRFKGSGSGTQFTLTISDLECDDAATYYCLGGYASTIDMWAFGGGTEVVVK", "values": [{"measurement": "OD450 nm", "setting": "[2]", "result": 0.872, "unit": "OD450"}, {"measurement": "ratio (OD450 to WT OD450)", "setting": "[2]", "result": "1.4 fold of WT"}, {"measurement": "OD450 nm", "setting": "[3]", "result": 0.872, "unit": "OD450"}, {"measurement": "ratio (OD450 to WT OD450)", "setting": "[3]", "result": "1.4 fold of WT"}]}
{"binder": "65D3 chimeric Fab, NNK library L2 mutant S to G (VL S24G) (Fab, V domains shown) VH: QSLEESGGRLVTPGGSLTLTCTVSGFSLSTHDISWVRQAPGKGLEWIGVIARRGSTYYASWAKGRFTISKTSTTVDLKITSPTIEDTATYFCAREEFDFWGQGTLVTVSS VL: AVLTQTASPVSAAVGGTVTISCQGSQSVYNNKELSWFQQKPGQPPKLLISYASTLASGVPSRFKGSGSGTQFTLTISDLECDDAATYYCLGGYASTIDMWAFGGGTEVVVK", "values": [{"measurement": "OD450 nm", "setting": "[2]", "result": "1.02 OD450 and 1.11 OD450"}, {"measurement": "ratio (OD450 to WT OD450)", "setting": "[2]", "result": "1.23 fold of WT and 1.33 fold of WT"}, {"measurement": "OD450 nm", "setting": "[3]", "result": 1.11, "unit": "OD450"}, {"measurement": "ratio (OD450 to WT OD450)", "setting": "[3]", "result": "1.33 fold of WT"}]}
{"binder": "65D3 chimeric Fab, NNK library L2 mutant S to T (VL S24T) (Fab, V domains shown) VH: QSLEESGGRLVTPGGSLTLTCTVSGFSLSTHDISWVRQAPGKGLEWIGVIARRGSTYYASWAKGRFTISKTSTTVDLKITSPTIEDTATYFCAREEFDFWGQGTLVTVSS VL: AVLTQTASPVSAAVGGTVTISCQTSQSVYNNKELSWFQQKPGQPPKLLISYASTLASGVPSRFKGSGSGTQFTLTISDLECDDAATYYCLGGYASTIDMWAFGGGTEVVVK", "values": [{"measurement": "OD450 nm", "setting": "[2]", "result": "1.01 OD450 and 1.07 OD450"}, {"measurement": "ratio (OD450 to WT OD450)", "setting": "[2]", "result": "1.21 fold of WT and 1.29 fold of WT"}, {"measurement": "OD450 nm", "setting": "[3]", "result": 1.07, "unit": "OD450"}, {"measurement": "ratio (OD450 to WT OD450)", "setting": "[3]", "result": "1.29 fold of WT"}]}
{"binder": "65D3 chimeric Fab, NNK library L2 mutant S to M (VL S24M) (Fab, V domains shown) VH: QSLEESGGRLVTPGGSLTLTCTVSGFSLSTHDISWVRQAPGKGLEWIGVIARRGSTYYASWAKGRFTISKTSTTVDLKITSPTIEDTATYFCAREEFDFWGQGTLVTVSS VL: AVLTQTASPVSAAVGGTVTISCQMSQSVYNNKELSWFQQKPGQPPKLLISYASTLASGVPSRFKGSGSGTQFTLTISDLECDDAATYYCLGGYASTIDMWAFGGGTEVVVK", "values": [{"measurement": "OD450 nm", "setting": "[2]", "result": "1.15 OD450 and 1.09 OD450"}, {"measurement": "ratio (OD450 to WT OD450)", "setting": "[2]", "result": "1.38 fold of WT and 1.31 fold of WT"}, {"measurement": "OD450 nm", "setting": "[3]", "result": 1.09, "unit": "OD450"}, {"measurement": "ratio (OD450 to WT OD450)", "setting": "[3]", "result": "1.31 fold of WT"}]}
